From patent US20260242465A1 (CELSIUS THERAPEUTICS, published 2026)

Key:
[1] = biological target: T1, recombinant monovalent rabbit TREM1-ECD (rabbit); assay: BLI; antibody on AHC sensor, monovalent TREM1-ECD in solution
T1 construct: extracellular domain
Text: (§1) Sensors were monitored to establish a baseline.
(§2) The coefficient of determination of the 1:1 model fit to the BLI sensorgrams is represented by the R\hat{ }2 value. Data for human and cynomolgus monkey represents averages across three replicates. Data for pig, dog, rabbit, rat, and mouse represents averages across two replicates.

[2] = biological target: T2, recombinant monovalent cynomolgus monkey TREM1-ECD (cynomolgus monkey); assay: as above
T2 construct: whole entry named; also called cyno TREM1-ECD
T2 chain: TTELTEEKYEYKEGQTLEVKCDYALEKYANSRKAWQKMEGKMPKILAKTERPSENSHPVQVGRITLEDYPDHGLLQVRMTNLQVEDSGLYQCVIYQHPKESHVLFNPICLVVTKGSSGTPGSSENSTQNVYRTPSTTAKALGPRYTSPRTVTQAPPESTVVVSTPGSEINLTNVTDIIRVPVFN
Text: as §1, §2

[3] = biological target: T3, recombinant monovalent mouse TREM1-ECD (mouse, UniProt Q9JKE2 21-202); assay: as above
T3 construct: whole entry named
T3 sequence: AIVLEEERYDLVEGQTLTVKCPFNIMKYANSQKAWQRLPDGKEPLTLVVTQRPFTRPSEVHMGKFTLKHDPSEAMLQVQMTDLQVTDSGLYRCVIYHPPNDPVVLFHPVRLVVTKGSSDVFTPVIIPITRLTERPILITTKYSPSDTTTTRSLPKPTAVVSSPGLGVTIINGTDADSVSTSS
Text: as §1, §2

[4] = biological target: T4, recombinant monovalent dog TREM1-ECD (dog (Canis familiaris)); assay: as above
T4 construct: whole entry named
T4 chain: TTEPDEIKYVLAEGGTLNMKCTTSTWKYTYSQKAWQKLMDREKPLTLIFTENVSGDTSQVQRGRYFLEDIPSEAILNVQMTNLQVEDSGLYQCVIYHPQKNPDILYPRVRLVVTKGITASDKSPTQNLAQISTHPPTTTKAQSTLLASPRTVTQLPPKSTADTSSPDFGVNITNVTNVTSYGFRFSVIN
Text: as §1, §2

[5] = biological target: T5, recombinant monovalent pig TREM1-ECD (pig (Sus scrofa), UniProt Q6TYI6 21-210); assay: as above
T5 construct: whole entry named
T5 sequence: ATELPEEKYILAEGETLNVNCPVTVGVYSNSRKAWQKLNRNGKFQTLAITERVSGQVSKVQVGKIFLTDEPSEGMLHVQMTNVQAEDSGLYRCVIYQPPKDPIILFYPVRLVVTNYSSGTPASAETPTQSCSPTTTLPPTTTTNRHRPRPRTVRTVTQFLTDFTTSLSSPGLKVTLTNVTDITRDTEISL
Text: as §1, §2

hFcγRIIIA176V [6] = biological target: T6, hFcγRIIIA176V (human, UniProt P08637 17-208); assay: SPR (Biacore T200), single-cycle kinetics; His-tagged FcγR captured, antibody as analyte; replicate 1
T6 construct: Bought; also called FcγRIIIA (176V polymorphism); not shown: His tag
Text: (§3) Human Fc receptors, FcγRI, FcγRII (both 167R and 167H polymorphisms), FcγRIIB, FcγRIIIA (both 176F and 176V polymorphisms) and FcγRIIIB were obtained from Sino Biological (Beijing, China). FcγR were captured on a CM5 sensor chip pre-coupled using a His capture kit (Cytiva, Uppsala, Sweden) using standard amine chemistry.
(§4) At the start of each cycle, His-tagged Fcγ receptors diluted in HBS-P+ (Cytiva, Uppsala, Sweden) were loaded to a specific RU level. A five point, three-fold dilution range of test antibody without regeneration between each concentration was used for each receptor tested. Antibodies were passed over the chip in increasing concentrations followed by a single dissociation step. Following dissociation, the chip was regenerated with two injections of glycine (pH 1.5).

hFcγRIIA167R [7] = biological target: T7, hFcγRIIA167R (human, UniProt P12318 34-218); assay: as above
T7 construct: also called FcγRII (167R polymorphism); not shown: His tag
T7 sequence (looked up): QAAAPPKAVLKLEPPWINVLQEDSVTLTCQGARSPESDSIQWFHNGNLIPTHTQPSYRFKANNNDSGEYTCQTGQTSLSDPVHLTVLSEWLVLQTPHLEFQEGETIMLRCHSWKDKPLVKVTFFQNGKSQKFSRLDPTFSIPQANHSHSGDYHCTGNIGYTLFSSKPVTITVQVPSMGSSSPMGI
Text: as §3, §4

[8] = biological target: T8, cynomolgus monkey TREM1 on neutrophils (cynomolgus monkey); assay: flow cytometry of whole blood, free TREM1 on neutrophils (percent of baseline) in cynomolgus monkeys dosed IV once weekly for 14 weeks
T8 construct: Endogenous receptor on neutrophils of dosed animals (receptor occupancy by flow cytometry); also called free TREM1 receptors on neutrophils (cynomolgus)
T8 chain: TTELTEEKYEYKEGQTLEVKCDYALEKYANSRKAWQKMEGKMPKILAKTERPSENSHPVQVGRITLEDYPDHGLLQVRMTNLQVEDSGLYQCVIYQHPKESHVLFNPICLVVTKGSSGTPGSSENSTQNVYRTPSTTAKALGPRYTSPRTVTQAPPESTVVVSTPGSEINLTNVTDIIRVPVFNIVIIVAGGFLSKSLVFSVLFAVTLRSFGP

hFcγRIIIA176V [9] = biological target: T6, hFcγRIIIA176V; assay: SPR (Biacore T200), single-cycle kinetics; replicate 2
Text: as §3, §4

hFcγRIIA167R [10] = biological target: T7, hFcγRIIA167R; assay: as above
Text: as §3, §4

purified human C1q = biological target: T9, purified human C1q (human, UniProt P02745 23-245; P02746 28-253; P02747 29-245); assay: ELISA; antibody coated in serial dilutions, human C1q at 5 µg/ml, anti-C1q-HRP
T9 construct: Purified from HyCult Biotech; also called complement protein C1q
Procedure: Plates were blocked with IX PBS (pH 7.4) with 2% w/v BSA. After blocking, purified human C1q (HyCult Biotech, Wayne, Pennsylvania) at 5 μg/ml was added to the ELISA plates for binding, Plates were washed an anti-C1q-HRP (Abcam, Cambridge, UK) was diluted 1:1000 in blocking buffer and added to the ELISA plates for detection. After washing, TMB microwell peroxidase substrate (Life Technologies) was added for detection. The reaction was stopped with TMB stop solution (VWR, Lutterworth, Leicestershire) after 5 minutes. Absorbance was read at 450 nm using a SpectraMax M3 plate reader (Molecular Devices, Wokingham, UK).

recombinant hTREM1-chFc1 [11] = biological target: T10, recombinant hTREM1-chFc1 (human); assay: bio-layer interferometry blocking assay: hTREM1-chFc1 on AHC biosensors, antibody titrated, then PGLYRP1 (blocked ligand, 971 nM per paragraph 383)
T10 construct: the whole entry is named; Captured on Octet AHC biosensors; also called immobilized TREM1-ECD; immobilized TREM1 protein
Procedure: (§5) The data was fitted with the sigmoidal (four-parameter) nonlinear regression equation. […] The data is from a single experiment that is representative of three replicates.
(§6) Briefly, recombinant hTREM1-chFc1 was immobilized on Octet AHC biosensors and then blocked with 100 μg/mL hIgG1-Fc. […] The incubation time between mAb and immobilized TREM1-ECD is limited to 300 s, thus limiting the amount of antibody that can bind to the immobilized TREM1, particularly at the sub-saturation concentrations.

hFcγRIIIA176V [12] = biological target: T6, hFcγRIIIA176V; assay: SPR (Biacore T200), single-cycle kinetics; His-tagged FcγR captured, antibody as analyte; replicate 2
Text: as §3, §4

hFcγRIIA167R [13] = biological target: T7, hFcγRIIA167R; assay: as above
Text: as §3, §4

hFcγRIIIA176V [14] = biological target: T6, hFcγRIIIA176V; assay: SPR (Biacore T200), single-cycle kinetics; replicate 1
Text: as §3, §4

hFcγRIIA167R [15] = biological target: T7, hFcγRIIA167R; assay: as above
Text: as §3, §4

[16] = biological target: T11, human TREM2 expressed on HEK293 cells (human, UniProt Q9NZC2 19-230); assay: polyspecificity assay; flow cytometry on transfected HEK293 cells
T11 construct: whole, on cells; Named member of the array of more than 6,000 human membrane proteins; also called TREM2 (membrane protein array)
T11 sequence (looked up): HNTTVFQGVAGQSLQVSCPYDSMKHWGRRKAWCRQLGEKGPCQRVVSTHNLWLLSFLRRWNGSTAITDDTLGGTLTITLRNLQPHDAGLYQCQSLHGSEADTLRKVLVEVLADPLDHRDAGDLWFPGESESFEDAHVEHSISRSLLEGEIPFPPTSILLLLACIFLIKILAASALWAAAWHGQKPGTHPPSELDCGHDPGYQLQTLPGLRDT
Text: Transient transfection was used to express an array of each of more than 6,000 human membrane proteins including TREM2 and other TREM family members on the surface of HEK293 cells. […] TMEM178A is an intracellular protein that localizes to the endoplasmic reticulum; see e.g., Decker et al., Proc. Natl. Acad. Sci., 112(51):15654-9 (2015).

recombinant hTREM1-chFc1 [17] = biological target: T10, recombinant hTREM1-chFc1; assay: BLI competition; hTREM1-chFc1 on AHC biosensor, antibody titrated 200 to 0.012 nM for 300 s, then 971 nM PGLYRP1 (competitor: PGLYRP1)
Procedure: as §5, §6

[18] = biological target: T12, human TREM2-ECD fused to an Fc domain (human, UniProt Q9NZC2 19-174); assay: bio-layer interferometry, TREM2-ECD-Fc immobilised on the sensor, antibody in solution, maximum response
T12 construct: extracellular domain; the text tells one result for TREM2-ECD, so they are written as one molecule; also called human TREM2-ECD (BioLegend, 786404 and R&D Systems, 1828-T2-050); not shown: Fc domain
T12 sequence (looked up): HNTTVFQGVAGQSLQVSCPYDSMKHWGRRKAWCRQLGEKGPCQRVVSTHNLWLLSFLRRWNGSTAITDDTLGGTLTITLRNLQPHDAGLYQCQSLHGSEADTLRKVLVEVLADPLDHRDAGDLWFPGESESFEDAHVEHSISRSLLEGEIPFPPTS
Procedure: In addition to TREM1, the TREM gene family also includes TREM2. […] Without wishing to be bound by any particular theory, TREM1 and TREM2 are thought to play opposing roles in modulating immune responses; see e.g., Sharif and Knapp, Immunobiology, 213(9-10):701-713 (2008). […] Briefly, 10 μg/mL TREM2-ECD fused to an Fc domain was immobilized on a sensor. Sensors were quenched and monitored to establish a baseline. […] The maximum BLI response was measured (FIG. 13).

T6 sequence (P08637 17-208 F176V): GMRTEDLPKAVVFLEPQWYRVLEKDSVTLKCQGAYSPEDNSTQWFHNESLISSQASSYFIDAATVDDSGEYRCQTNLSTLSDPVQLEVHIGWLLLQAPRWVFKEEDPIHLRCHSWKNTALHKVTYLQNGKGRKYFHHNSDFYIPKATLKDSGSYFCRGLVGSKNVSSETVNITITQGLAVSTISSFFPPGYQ
T10 sequence (Q9NP99 21-205): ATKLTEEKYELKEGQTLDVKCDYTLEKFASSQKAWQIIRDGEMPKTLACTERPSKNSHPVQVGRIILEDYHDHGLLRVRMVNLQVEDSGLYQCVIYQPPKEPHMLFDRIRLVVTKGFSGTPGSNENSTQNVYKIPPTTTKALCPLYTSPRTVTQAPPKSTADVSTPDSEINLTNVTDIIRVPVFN
T9 sequence (P02745 23-245 limits assumed, chain 1 of 3): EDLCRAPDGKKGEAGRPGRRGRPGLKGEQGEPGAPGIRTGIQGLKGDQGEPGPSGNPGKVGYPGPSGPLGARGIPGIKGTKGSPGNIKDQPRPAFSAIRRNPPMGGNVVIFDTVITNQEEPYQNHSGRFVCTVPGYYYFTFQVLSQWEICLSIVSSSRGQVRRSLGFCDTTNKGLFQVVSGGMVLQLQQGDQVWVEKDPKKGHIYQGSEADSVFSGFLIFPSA
T9 sequence (P02746 28-253 limits assumed, chain 2 of 3): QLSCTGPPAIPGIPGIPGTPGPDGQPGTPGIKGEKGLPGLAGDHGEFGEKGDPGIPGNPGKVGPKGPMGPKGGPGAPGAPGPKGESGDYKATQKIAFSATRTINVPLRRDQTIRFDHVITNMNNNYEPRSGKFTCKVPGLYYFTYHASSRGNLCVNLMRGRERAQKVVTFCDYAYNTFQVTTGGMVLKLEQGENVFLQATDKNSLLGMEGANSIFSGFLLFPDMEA
T9 sequence (P02747 29-245 limits assumed, chain 3 of 3): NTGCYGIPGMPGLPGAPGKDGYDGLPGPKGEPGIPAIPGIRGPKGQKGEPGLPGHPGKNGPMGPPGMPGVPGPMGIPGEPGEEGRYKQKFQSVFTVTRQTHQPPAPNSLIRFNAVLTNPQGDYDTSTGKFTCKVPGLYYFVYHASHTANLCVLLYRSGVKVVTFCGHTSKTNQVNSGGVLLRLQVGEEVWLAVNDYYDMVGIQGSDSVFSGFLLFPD

B1: anti-TREM1 antibody agent clone A (antibody, human IgG1, kappa)
heavy: EVQLVESGGVLVQPGGSLRLSCAASGITFSNSWMSWVRQAPGKGLEWVANIKQDGSEKYYVDSVKGRFTISRDNAKESLFLQMNSLRAEDTAVYYCARGGISTFDIWGQGTMVTVSSASTKGPSVFPLAPSSKSTSGGTAALGCLVKDYFPEPVTVSWNSGALTSGVHTFPAVLQSSGLYSLSSVVTVPSSSLGTQTYICNVNHKPSNTKVDKKVEPKSCDKTHTCPPCPAPPVAGPSVFLFPPKPKDTLMISRTPEVTCVVVDVSHEDPEVKFNWYVDGVEVHNAKTKPREEQYNSTYRVVSVLTVLHQDWLNGKEYKCKVSNKALPAPIEKTISKAKGQPREPQVYTLPPSRDELTKNQVSLTCLVKGFYPSDIAVEWESNGQPENNYKTTPPVLDSDGSFFLYSKLTVDKSRWQQGNVFSCSVMHEALHNHYTQKSLSLSPGK
light: not shown
notes: heavy chain carries the IgG1 constant region with PVAdelG, light chain is kappa; also called anti-TREM1 clone A; Anti-TREM1 Antibody Clone A
Maximum BLI response [1]: 0.005 nm
Kd [2]: 0.0019 µM
Maximum BLI response [2]: 0.343 nm
Maximum BLI response [3]: 0.005 nm
Maximum BLI response [4]: 0.006 nm
Maximum BLI response [5]: 0.013 nm
Kd (hFcγRIIIA176V [6]): 6.66 µM
Kd (hFcγRIIA167R [7]): 28.4 µM
binding result [8]: binds
Ratio (against Trastuzumab; not defined) (hFcγRIIIA176V [9]): 0.05
Ratio (against Trastuzumab; not defined) (hFcγRIIA167R [10]): 0.33
binding result (purified human C1q): no binding
IC50 (read off the curve) (recombinant hTREM1-chFc1 [11]): ~0.005 µM
Kd (hFcγRIIIA176V [12]): 6.49 µM
Kd (hFcγRIIA167R [13]): 28.3 µM
Ratio (against Trastuzumab; not defined) (hFcγRIIIA176V [14]): 0.05
Ratio (against Trastuzumab; not defined) (hFcγRIIA167R [15]): 0.33
binding result [16]: no binding (tested: 5 µg/mL)
IC50 (recombinant hTREM1-chFc1 [17]): 0.0045 µM
binding result [18]: no binding (tested: 3 ug/mL)
